Measured values reported in patent US20260285942 (published 2026).

T1: cynomolgus monkey TfR ECD (Macaca fascicularis)
T1 chain: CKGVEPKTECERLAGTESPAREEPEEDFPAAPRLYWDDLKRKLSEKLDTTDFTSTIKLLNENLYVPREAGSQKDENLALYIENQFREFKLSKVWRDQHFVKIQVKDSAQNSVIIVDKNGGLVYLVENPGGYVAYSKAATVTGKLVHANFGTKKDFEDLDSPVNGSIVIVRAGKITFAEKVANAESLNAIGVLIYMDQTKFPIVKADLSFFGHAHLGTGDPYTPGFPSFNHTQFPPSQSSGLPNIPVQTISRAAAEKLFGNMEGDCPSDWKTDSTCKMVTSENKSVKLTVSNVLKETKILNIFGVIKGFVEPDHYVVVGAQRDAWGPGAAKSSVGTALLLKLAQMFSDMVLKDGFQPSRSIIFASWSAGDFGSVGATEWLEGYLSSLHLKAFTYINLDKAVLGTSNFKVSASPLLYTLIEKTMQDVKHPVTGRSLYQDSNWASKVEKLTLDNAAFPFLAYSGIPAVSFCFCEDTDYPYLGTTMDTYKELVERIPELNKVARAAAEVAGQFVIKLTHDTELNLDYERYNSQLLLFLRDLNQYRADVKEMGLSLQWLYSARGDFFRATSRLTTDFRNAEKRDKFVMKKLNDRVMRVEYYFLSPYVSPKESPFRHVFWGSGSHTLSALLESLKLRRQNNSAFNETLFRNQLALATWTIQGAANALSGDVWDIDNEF


How the values were obtained:
human TfR ECD = human TfR ECD (human); assay: SPR
[1] = target: T1, cynomolgus monkey TfR ECD; assay: SPR

| Kd (human TfR ECD) [nM] | Kd [1] [nM] | Binder |
| --- | --- | --- |
| 16.5 | 17.6 | hTfR affinity peptide 1 (designed binder) QVQLVESGGGLVHPGGSLRLSCVASGTSFSLNVVTWYRQALGKQREWVATINQSEAPTYADSVKGRFTISRDGAKNTVYLQMNSLVTEDTALYYCYDRYNEIRGQGTQVTVSS |
| 16.5 | 17.6 | hTfR affinity peptide 2 (designed binder) QVQLVESGGGLVHPGGSLSLSCAASGTSFSFNTVTWYRQALGKQREWVATINGSGAPTYADSVKGRFTISRDGAKNTVYLLMNSLVTEDTALYYCYDRYNEIRGQGTQVTVSS |
